Results from patent US20170081400A1 (CEPHALON, published 2017).

T1: human TL1A extracellular domain with N-terminal HIS and FLAG tag (human, UniProt O95150 72-251)
T1 construct: the whole entry is named
T1 sequence: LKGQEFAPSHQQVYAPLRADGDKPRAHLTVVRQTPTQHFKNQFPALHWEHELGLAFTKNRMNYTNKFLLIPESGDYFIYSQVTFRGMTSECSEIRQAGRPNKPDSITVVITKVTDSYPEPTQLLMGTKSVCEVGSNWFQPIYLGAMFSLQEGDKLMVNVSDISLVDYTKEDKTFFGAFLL


Legend:
[1] = molecular target: T1, human TL1A extracellular domain with …; assay: SPR Run 5, Ab from supernatant captured on Protein A, TL1A 5 ug/mL, timepoint 220
Source text: (§1) 1.5. Antibody expression and antigen binding as determined by SPR. Using a CM5 sensor chip (GE Healthcare) Protein A (Pierce) was coupled to the chip surface using an amine coupling kit (GE Healthcare). Protein A was coupled on flow cell 1 and 2 (or alternatively 3 and 4) using a BIACORE® T200. […] The amount of supernatant or purified protein (as well as the concentration) injected during the capture stage varied between runs and is specified in the header of the Tables 3-11. At the end of injection of the supernatant or purified antibody the change in response units was measured. This value was reported as Capture Level in Tables 3-11. […] The response units were measured prior to the end of the dissociation phase. […] The sensorgrams were double referenced (flow cell 2 is subtracted from flow cell 1 and a buffer blank). As there were a large number of antibody variants to screen, these were screened across different runs (Tables 3-11). […] A summary of the conditions used in each run is below:
(§2) 2.1. […] In some experiment the antibodies were purified using Protein A chromatography (See 1.4) and purified antibodies were used in BIACORE® (GE Healthcare) experiments.

[2] = molecular target: T1, human TL1A extracellular domain with …; assay: SPR Run 5, Ab from supernatant captured on Protein A, TL1A 5 ug/mL, timepoint 44
Source text: as §1, §2

| TL1A Binding Level (Late) [1] | TL1A Binding Level (Early) [2] | Binder |
| --- | --- | --- |
| 2 RU | 3 RU | 320-384 (antibody, human IgG1, name in Kabat numbering, V domains shown, human IgG1, lambda) VH: QVQLVQSGAEVKKPGASVKVSCKASGYTFTSYDINWVRQAPGQGLEWMGWLNPNSGNTGYAQKFQGRVTMTADRSTSTAYMELSSLRSEDTAVYYCAREVPETAAFEYWGQGTLVTVSS VL: QSVLTQPPSVSGAPGQRVTISCTSSSSDIGAGLGVHWYQQLPGTAPKLLIEGYYNRPSGVPDRFSGSKSGTSASLTITGLLPEDEGDYYCQSYDGTLSAHFGGGTKLTVLG |
| 11 RU | 12 RU | 320-393 (antibody, human IgG1, name in Kabat numbering, V domains shown, human IgG1, lambda) VH: QVQLVQSGAEVKKPGASVKVSCKASKYTFTSYDINWVRQAPGQGLEWMGWLNPNSGNTGYAQKFQGRVTMTADRSTSTAYMELSSLRSEDTAVYYCAREVPETAAFEYWGQGTLVTVSS VL: QSVLTQPPSVSGAPGQRVTISCTSSSSDIGAGLGVHWYQQLPGTAPKLLIEGYYNRPSGVPDRFSGSKSGTSASLTITGLLPEDEGDYYCQSYDGTLSALFGGGTKLTVLG |
| 10 RU | 11 RU | 320-387 (antibody, human IgG1, name in Kabat numbering, V domains shown, human IgG1, lambda) VH: QVQLVQSGAEVKKPGASVKVSCKASGYTFTSYDINWVRQAPGQGLEWMGWLNPNSGNTGYAQKFQGRVTMTADRSTSTAYMELSSLRSEDTAVYYCAREVPETAAFEYWGQGTLVTVSS VL: QSVLTQPPSVSGAPGQRVTISCTSSSSDIGAGLGVHWYQQLPGTAPKLLIEGYYNRPSGVPDRFSGSKSGTSASLTITGLLPEDEGDYYCQSYDGTLSAYFGGGTKLTVLG |
| 13 RU | 14 RU | 320-388 (antibody, human IgG1, name in Kabat numbering, V domains shown, human IgG1, lambda) VH: QVQLVQSGAEVKKPGASVKVSCKASAYTFTSYDINWVRQAPGQGLEWMGWLNPNSGNTGYAQKFQGRVTMTADRSTSTAYMELSSLRSEDTAVYYCAREVPETAAFEYWGQGTLVTVSS VL: QSVLTQPPSVSGAPGQRVTISCTSSSSDIGAGLGVHWYQQLPGTAPKLLIEGYYNRPSGVPDRFSGSKSGTSASLTITGLLPEDEGDYYCQSYDGTLSALFGGGTKLTVLG |
| 11 RU | 12 RU | 320-390 (antibody, human IgG1, name in Kabat numbering, V domains shown, human IgG1, lambda) VH: QVQLVQSGAEVKKPGASVKVSCKASQYTFTSYDINWVRQAPGQGLEWMGWLNPNSGNTGYAQKFQGRVTMTADRSTSTAYMELSSLRSEDTAVYYCAREVPETAAFEYWGQGTLVTVSS VL: QSVLTQPPSVSGAPGQRVTISCTSSSSDIGAGLGVHWYQQLPGTAPKLLIEGYYNRPSGVPDRFSGSKSGTSASLTITGLLPEDEGDYYCQSYDGTLSALFGGGTKLTVLG |
| 11 RU | 12 RU | 320-389 (antibody, human IgG1, name in Kabat numbering, V domains shown, human IgG1, lambda) VH: QVQLVQSGAEVKKPGASVKVSCKASSYTFTSYDINWVRQAPGQGLEWMGWLNPNSGNTGYAQKFQGRVTMTADRSTSTAYMELSSLRSEDTAVYYCAREVPETAAFEYWGQGTLVTVSS VL: QSVLTQPPSVSGAPGQRVTISCTSSSSDIGAGLGVHWYQQLPGTAPKLLIEGYYNRPSGVPDRFSGSKSGTSASLTITGLLPEDEGDYYCQSYDGTLSALFGGGTKLTVLG |
| 11 RU | 12 RU | 320-392 (antibody, human IgG1, name in Kabat numbering, V domains shown, human IgG1, lambda) VH: QVQLVQSGAEVKKPGASVKVSCKASHYTFTSYDINWVRQAPGQGLEWMGWLNPNSGNTGYAQKFQGRVTMTADRSTSTAYMELSSLRSEDTAVYYCAREVPETAAFEYWGQGTLVTVSS VL: QSVLTQPPSVSGAPGQRVTISCTSSSSDIGAGLGVHWYQQLPGTAPKLLIEGYYNRPSGVPDRFSGSKSGTSASLTITGLLPEDEGDYYCQSYDGTLSALFGGGTKLTVLG |
| 13 RU | 14 RU | 320-391 (antibody, human IgG1, name in Kabat numbering, V domains shown, human IgG1, lambda) VH: QVQLVQSGAEVKKPGASVKVSCKASDYTFTSYDINWVRQAPGQGLEWMGWLNPNSGNTGYAQKFQGRVTMTADRSTSTAYMELSSLRSEDTAVYYCAREVPETAAFEYWGQGTLVTVSS VL: QSVLTQPPSVSGAPGQRVTISCTSSSSDIGAGLGVHWYQQLPGTAPKLLIEGYYNRPSGVPDRFSGSKSGTSASLTITGLLPEDEGDYYCQSYDGTLSALFGGGTKLTVLG |

The remaining lines, values behind:

| Binder | TL1A Binding Level (Late) [1] | TL1A Binding Level (Early) [2] |
| --- | --- | --- |
| 320-373 (antibody, human IgG1, name in Kabat numbering, V domains shown, human IgG1, lambda) VH: QVQLVQSGAEVKKPGASVKVSCKASGYTFTSYDINWVRQAPGQGLEWMGWLNPNSGNTGYAQKFQGRVTMTADRSTSTAYMELSSLRSEDTAVYYCAREVPETAAFEYWGQGTLVTVSS VL: QSVLTQPPSVSGAPGQRVTISCTSSSSDIGAGLGVHWYQQLPGTAPKLLIEGYYNRPSGVPDRFSGSKSGTSASLTITGLLPEDEGDYYCQSYDGTLSQLFGGGTKLTVLG | -1 RU | -1 RU |
| 320-378 (antibody, human IgG1, name in Kabat numbering, V domains shown, human IgG1, lambda) VH: QVQLVQSGAEVKKPGASVKVSCKASGYTFTSYDINWVRQAPGQGLEWMGWLNPNSGNTGYAQKFQGRVTMTADRSTSTAYMELSSLRSEDTAVYYCAREVPETAAFEYWGQGTLVTVSS VL: QSVLTQPPSVSGAPGQRVTISCTSSSSDIGAGLGVHWYQQLPGTAPKLLIEGYYNRPSGVPDRFSGSKSGTSASLTITGLLPEDEGDYYCQSYDGTLSWLFGGGTKLTVLG | -1 RU | -1 RU |
| 320-377 (antibody, human IgG1, name in Kabat numbering, V domains shown, human IgG1, lambda) VH: QVQLVQSGAEVKKPGASVKVSCKASGYTFTSYDINWVRQAPGQGLEWMGWLNPNSGNTGYAQKFQGRVTMTADRSTSTAYMELSSLRSEDTAVYYCAREVPETAAFEYWGQGTLVTVSS VL: QSVLTQPPSVSGAPGQRVTISCTSSSSDIGAGLGVHWYQQLPGTAPKLLIEGYYNRPSGVPDRFSGSKSGTSASLTITGLLPEDEGDYYCQSYDGTLSLLFGGGTKLTVLG | -1 RU | -1 RU |
| 320-379 (antibody, human IgG1, name in Kabat numbering, V domains shown, human IgG1, lambda) VH: QVQLVQSGAEVKKPGASVKVSCKASGYTFTSYDINWVRQAPGQGLEWMGWLNPNSGNTGYAQKFQGRVTMTADRSTSTAYMELSSLRSEDTAVYYCAREVPETAAFEYWGQGTLVTVSS VL: QSVLTQPPSVSGAPGQRVTISCTSSSSDIGAGLGVHWYQQLPGTAPKLLIEGYYNRPSGVPDRFSGSKSGTSASLTITGLLPEDEGDYYCQSYDGTLSYLFGGGTKLTVLG | 1 RU | 3 RU |
| 320-375 (antibody, human IgG1, name in Kabat numbering, V domains shown, human IgG1, lambda) VH: QVQLVQSGAEVKKPGASVKVSCKASGYTFTSYDINWVRQAPGQGLEWMGWLNPNSGNTGYAQKFQGRVTMTADRSTSTAYMELSSLRSEDTAVYYCAREVPETAAFEYWGQGTLVTVSS VL: QSVLTQPPSVSGAPGQRVTISCTSSSSDIGAGLGVHWYQQLPGTAPKLLIEGYYNRPSGVPDRFSGSKSGTSASLTITGLLPEDEGDYYCQSYDGTLSHLFGGGTKLTVLG | -1 RU | -2 RU |
| 320-381 (antibody, human IgG1, name in Kabat numbering, V domains shown, human IgG1, lambda) VH: QVQLVQSGAEVKKPGASVKVSCKASGYTFTSYDINWVRQAPGQGLEWMGWLNPNSGNTGYAQKFQGRVTMTADRSTSTAYMELSSLRSEDTAVYYCAREVPETAAFEYWGQGTLVTVSS VL: QSVLTQPPSVSGAPGQRVTISCTSSSSDIGAGLGVHWYQQLPGTAPKLLIEGYYNRPSGVPDRFSGSKSGTSASLTITGLLPEDEGDYYCQSYDGTLSASFGGGTKLTVLG | 1 RU | 3 RU |
| 320-383 (antibody, human IgG1, name in Kabat numbering, V domains shown, human IgG1, lambda) VH: QVQLVQSGAEVKKPGASVKVSCKASGYTFTSYDINWVRQAPGQGLEWMGWLNPNSGNTGYAQKFQGRVTMTADRSTSTAYMELSSLRSEDTAVYYCAREVPETAAFEYWGQGTLVTVSS VL: QSVLTQPPSVSGAPGQRVTISCTSSSSDIGAGLGVHWYQQLPGTAPKLLIEGYYNRPSGVPDRFSGSKSGTSASLTITGLLPEDEGDYYCQSYDGTLSADFGGGTKLTVLG | 1 RU | 3 RU |
| 320-382 (antibody, human IgG1, name in Kabat numbering, V domains shown, human IgG1, lambda) VH: QVQLVQSGAEVKKPGASVKVSCKASGYTFTSYDINWVRQAPGQGLEWMGWLNPNSGNTGYAQKFQGRVTMTADRSTSTAYMELSSLRSEDTAVYYCAREVPETAAFEYWGQGTLVTVSS VL: QSVLTQPPSVSGAPGQRVTISCTSSSSDIGAGLGVHWYQQLPGTAPKLLIEGYYNRPSGVPDRFSGSKSGTSASLTITGLLPEDEGDYYCQSYDGTLSAQFGGGTKLTVLG | 0 RU | 0 RU |
| 320-376 (antibody, human IgG1, name in Kabat numbering, V domains shown, human IgG1, lambda) VH: QVQLVQSGAEVKKPGASVKVSCKASGYTFTSYDINWVRQAPGQGLEWMGWLNPNSGNTGYAQKFQGRVTMTADRSTSTAYMELSSLRSEDTAVYYCAREVPETAAFEYWGQGTLVTVSS VL: QSVLTQPPSVSGAPGQRVTISCTSSSSDIGAGLGVHWYQQLPGTAPKLLIEGYYNRPSGVPDRFSGSKSGTSASLTITGLLPEDEGDYYCQSYDGTLSKLFGGGTKLTVLG | 1 RU | 3 RU |
